This is an account of results in US20220033501A1 (SHANGHAI PHARMAEXPLORER, published 2022).

Test [1] has as its target T1, human TIM-3 protein with hFc tag (hTIM-3-hFc protein) (human, UniProt Q8TDQ0 22-200).
T1 construct: also called immunogen 1; human TIM-3 extracellular domain protein; not shown: human IgG Fc fragment (hFc) of the pCpC vector
T1 sequence: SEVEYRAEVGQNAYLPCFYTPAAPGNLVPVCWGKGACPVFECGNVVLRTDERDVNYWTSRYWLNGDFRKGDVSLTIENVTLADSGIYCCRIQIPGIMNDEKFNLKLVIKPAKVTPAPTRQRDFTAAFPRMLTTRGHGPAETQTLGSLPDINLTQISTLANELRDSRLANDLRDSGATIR
The experiment in a line: ELISA, coated hTIM-3-hFc; antibody 66.667 nM. The source says:
(§1) The amino acid sequence 22-200 of the extracellular domain of the human TIM-3 protein described in the step of Example 1 (as shown in SEQ ID NO. 71 in the sequence listing) was cloned into a pCpC vector having a human IgG Fc fragment (hFc), and transfected into HEK293 cells. The cell culture medium was collected, and purified to obtain the human TIM-3 protein with hFc tag (herein referred to as hTIM-3-hFc protein). The amino acid sequence 22-201 of the extracellular domain of the monkey TIM-3 protein (as shown in SEQ ID NO. 72 in the sequence listing) was cloned into a pCpC vector having a human IgG Fc fragment (hFc), and transfected into HEK293 cells. The cell culture medium was collected, and purified to obtain the monkey TIM-3 protein with hFc tag (herein referred to as cTIM-3-hFc protein). […] The cell culture medium was collected, and purified to obtain the murine TIM-3 protein with hFc tag (herein referred to as mTIM-3-hFc protein). Purified human, monkey, and mouse TIM-3 extracellular domain proteins (hTIM-3-hFc, cTIM-3-hFc, and mTIM-3-hFc) were diluted with PBS to a final concentration of 1.0 μg/ml and then added to a 96-well ELISA plate with 100 μl per well. The plate was sealed with plastic film and incubated overnight at 4° C. The plate was washed 4 times with the plate washing solution (PBS+0.01% Tween20) on the next day, and added with the blocking solution (PBS+0.01% Tween20+1% BSA) and sealed at room temperature for 1-2 hours. The blocking solution was poured out. 50-100 μl of the antibody sample to be tested was added to each well. The plate was incubated at 37° C. for 1-2 hours, and washed 2-3 times with plate washing solution (PBS+0. 01% Tween20). HRP (horseradish peroxidase) labeled secondary antibody was added. The plate was incubated at 37° C. for 1-2 hours, and washed 2-3 times with plate washing solution (PBS+0. 01% Tween20). […] of TMB substrate was added to each well. After incubated at room temperature for 15-30 minutes, the plate was added with […] stop solution (1.0N HCl) to each well. An ELISA plate reader (TiterMax 384plus, Molecular Device) was used to read the A450 nm value.
Background: In an ELISA, binding on a coated surface is turned into a signal by an enzyme label.

Test [2] addresses T2, murine TIM-3 protein with hFc tag (mTIM-3-hFc protein) (mouse; human, UniProt Q8VIM0 29-191).
T2 construct: Made in HEK293 cells; also called mouse TIM-3 extracellular domain protein; not shown: human IgG Fc fragment (hFc) of the pCpC vector
T2 chain: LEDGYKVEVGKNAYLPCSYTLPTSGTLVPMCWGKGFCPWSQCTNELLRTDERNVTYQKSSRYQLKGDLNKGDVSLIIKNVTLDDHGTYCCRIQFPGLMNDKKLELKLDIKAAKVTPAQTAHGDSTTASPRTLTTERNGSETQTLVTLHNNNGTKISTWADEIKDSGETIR
The test can be described thus: ELISA, coated mTIM-3-hFc; antibody 0.0667 nM.
Excerpt: as §1

In test [3] the target is T2, murine TIM-3 protein with hFc tag …. The experiment in a line: ELISA, coated mTIM-3-hFc; antibody 6.6667 nM.
Excerpt: as §1

The target in test [4] is T3, monkey TIM-3 protein with hFc tag (cTIM-3-hFc protein) (monkey; human).
T3 construct: Made in HEK293 cells; also called monkey TIM-3 extracellular domain protein; not shown: human IgG Fc fragment (hFc) of the pCpC vector
T3 chain: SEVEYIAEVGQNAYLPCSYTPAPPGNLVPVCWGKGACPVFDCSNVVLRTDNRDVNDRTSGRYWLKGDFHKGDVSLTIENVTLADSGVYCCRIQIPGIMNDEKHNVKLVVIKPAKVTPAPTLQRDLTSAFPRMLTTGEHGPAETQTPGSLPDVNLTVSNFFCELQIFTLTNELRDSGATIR
The test can be described thus: ELISA, coated cTIM-3-hFc; antibody 0 nM (blank).
Excerpt: as §1

B1: 7A4F10 (TIM-3 antibody purified from hybridoma, chimeric antibody of Example 2) (antibody, V domains shown)
VH: EVQLLESGGGLVQPGGSLRLSCAASGFTFRTHLISWVRQAPGKGLEWVAAITGSGGSTYYADSVKGRFIISRDNSKNTLFLQMNSLRAEDTAVYYCAKDGGSGSYDDFWGQGTLVTVSS
VL: ETVLTQSPVTLSLSPGERATLSCRASQSVGSYLAWYQQKPGQAPRLLIYDASNRATGIPARFSGSGSGTDFTLTISSLEPEDFAVYYCQQRSNWPPTFGQGTKVEIK
notes: From hybridoma of Harbour H2L2 transgenic mice: human variable regions, rat constant regions
As for B1, the OD450 in test [1] was determined as 3.08; in test [2], 0.62; in test [3] it was 0.67; in test [4] it was 0.54.

B2: 18D2H2 (TIM-3 antibody purified from hybridoma, chimeric antibody of Example 2) (antibody, V domains shown)
VH: EVQLVESGGDLVQPGGSLRLSCAASGFTFSTYWMTWVRQAPGRGLEWVANIKQDGSAKYYVDSVKGRFTLSRDDAKNSLYLQMNSLRAEDTAVYYCARGSNWFDYWGQGTLVTVSS
VL: ETVMTQSPATLSVSPGERATLSCRANQNVYSNLAWYQQKPGQAPRLLIYDASTRATGFPARFSGSGSGTEFTLTISSLQSEDFAVYYCQQYNNWPLTFGGGTKVEIK
notes: as for B1
Regarding B2, the OD450 in test [1] came to 2.93; in test [2], 0.67; in test [3] it was 0.69; in test [4], 0.55.

B3: 34B6D8 (TIM-3 antibody purified from hybridoma, chimeric antibody of Example 2) (antibody, V domains shown)
VH: EVQLVESGGGLVQPGGSLRLSCAASGFTFSTYWMTWVRQAPGKRLEWVANIKQGGGDKYYVDSVKGRFTISTDNAKNSLYLQMNSLRAEDTAVYYCARGSNWFDPWGQGTLVTVSS
VL: EIVMTQSPATLSMSPGERATLSCRASQSVYDNLAWYQQKPGQAPRLLIYGASTRATGIPARFSGSGSGTEFTLTISSLQSEDFALYYCQQYTHWPITFGQGTRLEIK
notes: as for B1
Turning to B3, the OD450 in test [1] was found to be 3.42; in test [2] it was 0.68; in test [3], 0.74; in test [4], 0.58.

B4: 134H3G6 (TIM-3 antibody purified from hybridoma, chimeric antibody of Example 2) (antibody, V domains shown)
VH: EVQLVESGGGLVQPGGSLRLSCAASGFTFSNSWMTWVRQAPGKGLEWVANIKQAGTEKYYVDSVKGRFTISRDNAKNSLYLQMNSLRAEDTAVYYCNSGSNYFDYWGQGTLVTVSS
VL: EIVMTQSPATLSVSPGERATLSCRARQNFYSNLAWYQQKPGQAPRLLIYGASTRATGIPARFSGSGSGTEFTLTISSLQSEDFAVYYCQQYNNWPLTFGGGTKVEIK
notes: as for B1
Consider B4, for which the OD450 came to 3.15 in test [1], 0.65 in test [2], 0.67 in test [3] and 0.55 in test [4].

B5: 39E5H1 (TIM-3 antibody purified from hybridoma, chimeric antibody of Example 2) (antibody, V domains shown)
VH: EVQLVESGGGLVQPGGSLRLSCAASGFTFSSYWMSWVRQAPGKGLEWVANIKRGGSERYYVDSVKGRFTISGDNAKNSVYLQMNSLRAEDTAVYYCARGSNWFDPWGQGTLVTVSS
VL: ETVMTQSPAILSVSPGERATLSCRASQSVYSNLAWYQQKLGQAPRLLIYDASTRATGIPARFSGSGSGTEFTLTISSLQSEDFAVYYCQQYNNWPITFGQGTRLEIK
notes: as for B1
For the molecule B5, the OD450 was 3.39 in test [1], 0.68 in test [2], 0.68 in test [3] and 0.59 in test [4].

B6: 57F4E5 (TIM-3 antibody purified from hybridoma, chimeric antibody of Example 2) (antibody, V domains shown)
VH: EVQLVESGGGLVQPGGSLRLSCAASGFTFSSYWMSWVRQAPGKGLEWVANIKQDGSEKYYVDSVKGRFTISRDSAKNSLYLQMNSLRAEDTAMYFCARDSNFFDYWGQGTLVTVSS
VL: ETVMTQSPATLSVSPGERATLSCRASQSVSSNLAWYQRKPGQAPRLLIYFSSTRATGIPARFSGSGSGTEFTLTISSLQSEDFAVYYCQQYNNWPLTFGGGTKVEIK
notes: as for B1
On to B6, for which the OD450 in test [1] was 3.26; in test [2] it was 0.64; in test [3], 0.69; in test [4], 0.56.

B7: 215A8F2 (TIM-3 antibody purified from hybridoma, chimeric antibody of Example 2) (antibody, V domains shown)
VH: QVQLQQWGAGLLKPSETLSLTCTVYGGSFSGYYWNWIRQPPGKGLEWLGEINHSGSTNYNPSLKRRVTISVDTSKNQFSLKLSSVTAADTAVYYCARVYYYGPFDFWGQGTLVTVSS
VL: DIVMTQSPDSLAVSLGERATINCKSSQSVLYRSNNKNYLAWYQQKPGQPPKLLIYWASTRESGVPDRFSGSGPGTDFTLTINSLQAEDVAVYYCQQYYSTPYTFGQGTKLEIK
notes: as for B1
Regarding B7, the OD450 is 3.17 in test [1], 0.67 in test [2], 0.68 in test [3] and 0.57 in test [4].
